# From publication PMC13544220, “Glycemic and bodyweight effects of GIPR coding variation reflect differences in surface expression and intrinsic functional impairment” (Science Advances, 2026)
# B1: R183Q (protein, UniProt P48546 22-466, looked up, variant R183Q)
# Gastric inhibitory …: RAETGSKGQTAGELYQRWERYRRECQETLAAAEPPSGLACNGSFDMYVCWDYAAPNATARASCPWYLPWHHHVAAGFVLRQCGSDGQWGLWRDHTQCENPEKNEAFLDQRLILERLQVMYTVGYSLSLATLLLALLILSLFRRLHCTRNYIHINLFTSFMLQAAAILSRDRLLPRPGPYLGDQALALWNQALAACRTAQIVTQYCVGANYTWLLVEGVYLHSLLVLVGGSEEGHFRYYLLLGWGAPALFVIPWVIVRYLYENTQCWERNEVKAIWWIIRTPILMTILINFLIFIRILGILLSKLRTRQMRCRDYRLRLARSTLTLVPLLGVHEVVFAPVTEEQARGALRFAKLGFEIFLSSFQGFLVSVLYCFINKEVQSEIRRGWHHCRLRRSLGEEQRQLPERAFRALPSGSGPGEVPTSRGLSSGTLPGPGNEASRELESYC
# B2: S64A (protein, UniProt P48546 22-466, looked up, variant S64A)
# Gastric inhibitory …: RAETGSKGQTAGELYQRWERYRRECQETLAAAEPPSGLACNGAFDMYVCWDYAAPNATARASCPWYLPWHHHVAAGFVLRQCGSDGQWGLWRDHTQCENPEKNEAFLDQRLILERLQVMYTVGYSLSLATLLLALLILSLFRRLHCTRNYIHINLFTSFMLRAAAILSRDRLLPRPGPYLGDQALALWNQALAACRTAQIVTQYCVGANYTWLLVEGVYLHSLLVLVGGSEEGHFRYYLLLGWGAPALFVIPWVIVRYLYENTQCWERNEVKAIWWIIRTPILMTILINFLIFIRILGILLSKLRTRQMRCRDYRLRLARSTLTLVPLLGVHEVVFAPVTEEQARGALRFAKLGFEIFLSSFQGFLVSVLYCFINKEVQSEIRRGWHHCRLRRSLGEEQRQLPERAFRALPSGSGPGEVPTSRGLSSGTLPGPGNEASRELESYC
# What was measured:
# Type in all cases: cell-based, human
# [1] = system: wild-type and variant SNAP-GIPR; experiment: Single-concentration GIP cAMP response by HTRF in INS-1 cells; conditions: Fig S3E, mean
# Protocol: (§1) All variants were tested in parallel on each occasion to control for transfection efficiency differences between experiments.
# [2] = system: wild-type and variant SNAP-GIPR; experiment: cADDis cAMP imaging in AD293 cells, ensemble, expression-matched and per decile; conditions: Fig S3F, cADDis, mean
# Method in brief: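 Per-cell cAMP from cADDis intensity over time, with cells excluded by IBMX/FSK response criteria. Expression matching used wild-type surface-SNAP deciles, top and bottom trimmed, mean of decile means. Ensemble values ignore deciles. Wide-field imaging at 37 °C in KRBH with 6 mM glucose, 0.1% BSA, 24 h post-transfection in AD293.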
# [3] = system: wild-type and variant SNAP-GIPR; experiment: Single-concentration GIP cAMP response by HTRF in AD293 cells; conditions: Fig S3F, HTRF, mean;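 note: ratio to experiment-wide average response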
# Protocol: as §1
# [4] = system: wild-type and variant SNAP-GIPR; experiment: Surface SNAP-GIPR expression (SNAP-tag labelling) in INS-1 cells; conditions: Fig 4G; Mean
# Method in brief: (§2)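 Surface GIPR is quantified from wide-field images after labelling intact transfected cells with a membrane-impermeant SNAP probe at 500 nM for 10 min at room temperature. Specific signal, corrected for nontransfected cells, is normalized to the experiment-wide average or to wild-type.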
# [5] = system: wild-type and variant SNAP-GIPR; experiment: Constitutive and agonist-mediated internalization, reversible SNAP-tag labelling, AD293 cells; parameters: key to Internalisation, Vehicle / Internalisation, +GIP / Internalisation, GIP-only: % internalization: residual fluorescence after Mesna vs pre-Mesna; Surface expression: unit not given here; conditions: Mean; for +GIP internalisation (100 nM) / GIP-specific internalisation (100 nM) / Constitutive internalisation (100 nM) / Surface expression: Fig 4E; for +GIP internalisation (100 nM) / GIP-specific internalisation (100 nM): GIP 100 nM; for Internalisation, +GIP / Internalisation, GIP-only / Internalisation, Vehicle: Fig S4C, AD293
# Method in brief: (§3)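 % internalization = residual specific fluorescence after Mesna / pre-Mesna value. Imaging in TNE buffer pH 8.6; second image 10 min post-Mesna.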
# [6] = system: wild-type and variant SNAP-GIPR; experiment: Constitutive and agonist-mediated internalization, reversible SNAP-tag labelling, INS-1 cells; parameters: key to Internalisation, GIP-only / Internalisation, Vehicle / Internalisation, +GIP: % internalization: residual fluorescence after Mesna vs pre-Mesna; conditions: Mean; for +GIP internalisation (100 nM) / GIP-specific internalisation (100 nM) / Constitutive internalisation (100 nM): Fig 4G; for +GIP internalisation (100 nM) / GIP-specific internalisation (100 nM): GIP 100 nM; for Internalisation, +GIP / Internalisation, GIP-only / Internalisation, Vehicle: Fig S4C, INS-1
# Method in brief: as §3
# [7] = system: wild-type and variant SNAP-GIPR; experiment: Surface SNAP-GIPR expression (SNAP-tag labelling) in AD293 cells; conditions: for AD293 Surface: Fig S3E, mean; for Surface SNAP-GIPR expression: sheet Fig 1C;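 for all read-outs here: scaled to the experimental average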
# Method in brief: as §2
# [8] = column repeated, paired with cAMP 100 nM
molecule,measurement,setting,value
B1,INS-1 cAMP (100 nM),[1],0.04521
same,AD293 100 pM cADDis,[2],-1.0843
same,AD293 100 nM cADDis,[2],18.64
same,AD293 100 pM HTRF,[3],0.04104
same,AD293 100 nM HTRF,[3],0.2411
same,Surface expression,[4],0.8445
same,+GIP internalisation (100 nM),[5],0.3247
same,GIP-specific internalisation (100 nM),[5],0.02672
same,Constitutive internalisation (100 nM),[5],0.298
same,Surface expression,[5],0.6535
same,"Internalisation, +GIP",[5],49.3267
same,"Internalisation, GIP-only",[5],3.992
same,"Internalisation, Vehicle",[5],45.335
same,+GIP internalisation (100 nM),[6],0.3116
same,GIP-specific internalisation (100 nM),[6],0.02961
same,Constitutive internalisation (100 nM),[6],0.282
same,"Internalisation, +GIP",[6],37.4683
same,"Internalisation, GIP-only",[6],3.708
same,"Internalisation, Vehicle",[6],33.76
same,AD293 Surface,[7]; [8],0.6425
same,AD293 Surface,[7]; paired with cAMP 100 pM,0.6425
same,Surface SNAP-GIPR expression,[7]; replicate 1,0.7543
same,Surface SNAP-GIPR expression,[7]; replicate 2,1.106
same,Surface SNAP-GIPR expression,[7]; replicate 3,0.9536
same,Surface SNAP-GIPR expression,[7]; replicate 4,0.232
same,Surface SNAP-GIPR expression,[7]; replicate 5,0.7423
same,Surface SNAP-GIPR expression,[7]; replicate 6,0.6069
same,Surface SNAP-GIPR expression,[7]; replicate 7,1.15
same,Surface SNAP-GIPR expression,[7]; replicate 8,0.9044
same,Surface SNAP-GIPR expression,[7]; replicate 9,0.5747
same,Surface SNAP-GIPR expression,[7]; replicate 10,0.6709
same,Surface SNAP-GIPR expression,[7]; replicate 11,0.6959
same,Surface SNAP-GIPR expression,[7]; replicate 12,0.6048
same,Surface SNAP-GIPR expression,[7]; replicate 13,0.2083
same,Surface SNAP-GIPR expression,[7]; replicate 14,0.4922
same,Surface SNAP-GIPR expression,[7]; replicate 15,0.6065
same,Surface SNAP-GIPR expression,[7]; replicate 16,0.716
same,Surface SNAP-GIPR expression,[7]; replicate 17,0.7375
same,Surface SNAP-GIPR expression,[7]; replicate 18,0.5932
same,Surface SNAP-GIPR expression,[7]; replicate 19,0.8135
same,Surface SNAP-GIPR expression,[7]; replicate 20,0.672
same,Surface SNAP-GIPR expression,[7]; replicate 21,0.7253
same,Surface SNAP-GIPR expression,[7]; replicate 22,0.7101
same,Surface SNAP-GIPR expression,[7]; replicate 23,0.6734
same,Surface SNAP-GIPR expression,[7]; replicate 24,0.6371
same,Surface SNAP-GIPR expression,[7]; replicate 25,0.6035
same,Surface SNAP-GIPR expression,[7]; replicate 26,0.6412
same,Surface SNAP-GIPR expression,[7]; replicate 27,0.6638
same,Surface SNAP-GIPR expression,[7]; replicate 28,0.5579
same,Surface SNAP-GIPR expression,[7]; replicate 29,0.6957
same,Surface SNAP-GIPR expression,[7]; replicate 30,0.2984
same,Surface SNAP-GIPR expression,[7]; replicate 31,0.1821
same,Surface SNAP-GIPR expression,[7]; replicate 32,0.3718
same,Surface SNAP-GIPR expression,[7]; replicate 33,0.3193
same,Surface SNAP-GIPR expression,[7]; replicate 34,0.6173
same,Surface SNAP-GIPR expression,[7]; replicate 35,0.7865
same,Surface SNAP-GIPR expression,[7]; replicate 36,0.6007
same,Surface SNAP-GIPR expression,[7]; replicate 37,0.5904
same,Surface SNAP-GIPR expression,[7]; replicate 38,0.7906
same,Surface SNAP-GIPR expression,[7]; replicate 39,0.7153
same,Surface SNAP-GIPR expression,[7]; replicate 40,0.6916
same,Surface SNAP-GIPR expression,[7]; replicate 41,0.6376
B2,INS-1 cAMP (100 nM),[1],1.062
same,AD293 100 pM cADDis,[2],21.6969
same,AD293 100 nM cADDis,[2],34.42
same,AD293 100 pM HTRF,[3],0.1562
same,AD293 100 nM HTRF,[3],1.061
same,Surface expression,[4],0.6025
same,+GIP internalisation (100 nM),[5],0.3536
same,GIP-specific internalisation (100 nM),[5],0.06262
same,Constitutive internalisation (100 nM),[5],0.291
same,Surface expression,[5],0.5133
same,"Internalisation, +GIP",[5],68.8859
same,"Internalisation, GIP-only",[5],12.125
same,"Internalisation, Vehicle",[5],56.7609
same,+GIP internalisation (100 nM),[6],0.3425
same,GIP-specific internalisation (100 nM),[6],0.05503
same,Constitutive internalisation (100 nM),[6],0.2874
same,"Internalisation, +GIP",[6],52.768
same,"Internalisation, GIP-only",[6],8.16
same,"Internalisation, Vehicle",[6],44.608
same,AD293 Surface,[7]; [8],0.5377
same,AD293 Surface,[7]; paired with cAMP 100 pM,0.5377
same,Surface SNAP-GIPR expression,[7]; replicate 1,0.5948
same,Surface SNAP-GIPR expression,[7]; replicate 2,0.3831
same,Surface SNAP-GIPR expression,[7]; replicate 3,0.1917
same,Surface SNAP-GIPR expression,[7]; replicate 4,0.03284
same,Surface SNAP-GIPR expression,[7]; replicate 5,0.714
same,Surface SNAP-GIPR expression,[7]; replicate 6,0.449
same,Surface SNAP-GIPR expression,[7]; replicate 7,0.6736
same,Surface SNAP-GIPR expression,[7]; replicate 8,0.7024
same,Surface SNAP-GIPR expression,[7]; replicate 9,0.4646
same,Surface SNAP-GIPR expression,[7]; replicate 10,0.5884
same,Surface SNAP-GIPR expression,[7]; replicate 11,0.4154
same,Surface SNAP-GIPR expression,[7]; replicate 12,0.584
same,Surface SNAP-GIPR expression,[7]; replicate 13,0.53
same,Surface SNAP-GIPR expression,[7]; replicate 14,0.7656
same,Surface SNAP-GIPR expression,[7]; replicate 15,0.5316
same,Surface SNAP-GIPR expression,[7]; replicate 16,0.5279
same,Surface SNAP-GIPR expression,[7]; replicate 17,0.5713
same,Surface SNAP-GIPR expression,[7]; replicate 18,0.5329
same,Surface SNAP-GIPR expression,[7]; replicate 19,0.5212
same,Surface SNAP-GIPR expression,[7]; replicate 20,0.6932
same,Surface SNAP-GIPR expression,[7]; replicate 21,0.7203
same,Surface SNAP-GIPR expression,[7]; replicate 22,0.5804
same,Surface SNAP-GIPR expression,[7]; replicate 23,0.6278
same,Surface SNAP-GIPR expression,[7]; replicate 24,0.5394
same,Surface SNAP-GIPR expression,[7]; replicate 25,0.4918
same,Surface SNAP-GIPR expression,[7]; replicate 26,0.6002
same,Surface SNAP-GIPR expression,[7]; replicate 27,0.6328
same,Surface SNAP-GIPR expression,[7]; replicate 28,0.5573
same,Surface SNAP-GIPR expression,[7]; replicate 29,0.4754
same,Surface SNAP-GIPR expression,[7]; replicate 30,0.4312
same,Surface SNAP-GIPR expression,[7]; replicate 31,0.4378
same,Surface SNAP-GIPR expression,[7]; replicate 32,0.606
same,Surface SNAP-GIPR expression,[7]; replicate 33,0.6793
same,Surface SNAP-GIPR expression,[7]; replicate 34,0.4646
same,Surface SNAP-GIPR expression,[7]; replicate 35,0.5832
same,Surface SNAP-GIPR expression,[7]; replicate 36,0.4138
same,Surface SNAP-GIPR expression,[7]; replicate 37,0.5632
same,Surface SNAP-GIPR expression,[7]; replicate 38,0.4283
same,Surface SNAP-GIPR expression,[7]; replicate 39,0.6589
same,Surface SNAP-GIPR expression,[7]; replicate 40,0.5446
same,Surface SNAP-GIPR expression,[7]; replicate 41,0.5428
